Laboratory results taken from the supplement of paper PMC7125110.
± gives the standard error. Variants at the floor of the assay were thinned out.

B1: glmS ribozyme (parent)
chain: AUAAAAGCGCCAGAACUACAGAAAUGUAGUUGACGAGGAGGAGGUUUAUCGAAUUUUCGGCGGAUGCCUCCAAA

What was measured:
Conditions in all cases: with glucosamine-6-phosphate
glucosamine-6-phosphate [1] = variants of: B1; assay: self-cleavage kobs at 40 uM GlcN6P; higher = faster cleavage; RNA array
Summary of the method: (§1)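 Tiles of sequenced MiSeq chips were imaged over ~14 h at 37 °C. On them, barcoded ribozyme variants had been transcribed in situ by E. coli RNA polymerase and were tracked via a hybridised Cy3 probe while glucosamine-6-phosphate (40 μM to 10 mM) in HEPES/KCl/Mg(OAc)2 buffer flowed in. Per-tile medians, normalised to baseline and to non-cleaving reference variants, were fit to one- or two-exponential decays for kobs, and weighted Michaelis–Menten fits gave kcat and KM.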

glucosamine-6-phosphate [2] = variants of: B1; assay: self-cleavage kobs at 160 uM GlcN6P; higher = faster cleavage; RNA array
Summary of the method: as §1

glucosamine-6-phosphate [3] = variants of: B1; assay: self-cleavage kobs at 640 uM GlcN6P; higher = faster cleavage; RNA array
Summary of the method: as §1

glucosamine-6-phosphate [4] = variants of: B1; assay: self-cleavage kobs at 2500 uM GlcN6P; higher = faster cleavage; RNA array
Summary of the method: as §1

glucosamine-6-phosphate [5] = variants of: B1; assay: self-cleavage kobs at 10000 uM GlcN6P; higher = faster cleavage; RNA array
Summary of the method: as §1

Variant | self-cleavage kobs at 40 uM GlcN6P (glucosamine-6-phosphate [1]) | self-cleavage kobs at 160 uM GlcN6P (glucosamine-6-phosphate [2]) | self-cleavage kobs at 640 uM GlcN6P (glucosamine-6-phosphate [3]) | self-cleavage kobs at 2500 uM GlcN6P (glucosamine-6-phosphate [4]) | self-cleavage kobs at 10000 uM GlcN6P (glucosamine-6-phosphate [5])
G7U A33G | < 1e-05 s⁻¹ | < 1e-05 s⁻¹ | < 1e-05 s⁻¹ | < 1e-05 s⁻¹ | 
U45G C50A | < 1e-05 s⁻¹ |  |  |  | 
A33U A36C A39C G41C G44A U46G G51U C58U A64U | < 1e-05 s⁻¹ |  |  |  | < 1e-05 s⁻¹
U47A U54C C71U | 0.000577 ± 0.00018 s⁻¹ |  |  |  | 0.0135 ± 0.0039 s⁻¹
G38U G43C A64U | < 1e-05 s⁻¹ |  |  | < 1e-05 s⁻¹ | 
G35C A39C U49A A53U | < 1e-05 s⁻¹ |  |  |  | 
C11A A39G U45A A52U | < 1e-05 s⁻¹ |  |  |  | 
G41U G63A | < 1e-05 s⁻¹ |  | < 1e-05 s⁻¹ | < 1e-05 s⁻¹ | < 1e-05 s⁻¹
U30C G38C | < 1e-05 s⁻¹ |  | < 1e-05 s⁻¹ | < 1e-05 s⁻¹ | 
G32C U49C | < 1e-05 s⁻¹ | < 1e-05 s⁻¹ |  |  | 
C10G U69A | < 1e-05 s⁻¹ |  |  |  | 
A12G C16A A36G U69C | < 1e-05 s⁻¹ |  |  |  | 
G9A C58G | < 1e-05 s⁻¹ | < 1e-05 s⁻¹ | < 1e-05 s⁻¹ | < 1e-05 s⁻¹ | 
A6G G60A G62C | < 1e-05 s⁻¹ |  |  |  | 
G44A U56C G63A | < 1e-05 s⁻¹ |  |  |  | < 1e-05 s⁻¹
A6C G7U | < 1e-05 s⁻¹ | < 1e-05 s⁻¹ | < 1e-05 s⁻¹ | < 1e-05 s⁻¹ | < 1e-05 s⁻¹
C10G C11G G63C | < 1e-05 s⁻¹ |  |  |  | < 1e-05 s⁻¹
C11U G13C C16A U49A | < 1e-05 s⁻¹ | < 1e-05 s⁻¹ | < 1e-05 s⁻¹ |  | 
C8G G51U A64G | < 1e-05 s⁻¹ |  |  |  | < 1e-05 s⁻¹
A36G G51A A52G | < 1e-05 s⁻¹ |  |  |  | 
G32U C61G | < 1e-05 s⁻¹ |  | < 1e-05 s⁻¹ |  | 
G9U A36C | < 1e-05 s⁻¹ |  | < 1e-05 s⁻¹ | < 1e-05 s⁻¹ | < 1e-05 s⁻¹
G32U A48U C61U G63U C67U | < 1e-05 s⁻¹ |  | < 1e-05 s⁻¹ |  | < 1e-05 s⁻¹
G9A A53C | < 1e-05 s⁻¹ | < 1e-05 s⁻¹ | < 1e-05 s⁻¹ | < 1e-05 s⁻¹ | < 1e-05 s⁻¹
A36C G63A | < 1e-05 s⁻¹ |  | < 1e-05 s⁻¹ |  | 
C8A G29A G51U | < 1e-05 s⁻¹ |  |  |  | < 1e-05 s⁻¹
G7C G37U U47C G59U G66U C70U | < 1e-05 s⁻¹ | < 1e-05 s⁻¹ |  |  | < 1e-05 s⁻¹
